Substitutions are numbered along the chain they refer to. In names and notes the source's numbering stands. Several values for one entry are separate records, joined by “and”; a condition that tells them apart may be missing. Equal values may be shown once.
B1: R29D, Y31L, Q33H, K36G, M38I, T41A, M43R, M47T, A91G, I118V, T120S, I127T, T130A, H188D (protein)
chain: VIHVTKEVKEVATLSCGHNVSVEELAQTDILWHKEGKIVLAMRSGDTNIWPEYKNRTIFDITNNLSIVILALRPSDEGTYECVVLKYEKDGFKREHLAEVTLSVKADFPTPSISDFEVPSSNIRRITCSASGGFPEPHLSWLENGEELNAINTTVSQDPETELYAVSSKLDFNMTTNHSFMCLIKYGDLRVNQTFNWNTTKQEHFPDN
B2: R29D, Y31L, Q33H, K36G, M38I, T41A, M43R, M47T, L70Q, D76G, A91G, S103L, I118V, T120S, I127T, T130A (protein)
chain: B1 chain with L70Q, D76G, S103L, D188H
B3: Y53C/L70Q/D90G/T130A/N149D/N152T/H188D (protein)
chain: VIHVTKEVKEVATLSCGHNVSVEELAQTRIYWQKEKKMVLTMMSGDMNIWPECKNRTIFDITNNLSIVIQALRPSDEGTYECVVLKYEKGAFKREHLAEVTLSVKADFPTPSISDFEIPTSNIRRIICSASGGFPEPHLSWLENGEELDAITTTVSQDPETELYAVSSKLDFNMTTNHSFMCLIKYGDLRVNQTFNWNTTKQEHFPDN
B4: Y53C, L85R, K89N, A91T, F92P, K93V, R94L, I118V, T120S, I127T, T130A, K169E (protein)
chain: VIHVTKEVKEVATLSCGHNVSVEELAQTRIYWQKEKKMVLTMMSGDMNIWPECKNRTIFDITNNLSIVILALRPSDEGTYECVVRKYENDTPVLEHLAEVTLSVKADFPTPSISDFEVPSSNIRRITCSASGGFPEPHLSWLENGEELNAINTTVSQDPETELYAVSSELDFNMTTNHSFMCLIKYGHLRVNQTFNWNTTKQEHFPDN
B5: T62S, E81V, L85R, K89N, A91T, F92P, K93V, R94L, I118V, T120S, T130A, K169E (protein)
chain: B4 chain with C53Y, T62S, E81V, T127I
B6: L70Q, A91G, I118V, T120S, T130A, K169E (protein)
chain: B4 chain with C53Y, L70Q, R85L, N89K, T91G, P92F, V93K, L94R, T127I
modifications: CD80 v125 ECD
B7: R29D, Y31L, Q33H, K36G, M38I, T41A, M43R, M47T, L70Q, E81V, L85R, K89N, A91T, F92P, K93I, R94L, L97R, T130A (protein)
chain: VIHVTKEVKEVATLSCGHNVSVEELAQTDILWHKEGKIVLAMRSGDTNIWPEYKNRTIFDITNNLSIVIQALRPSDEGTYVCVVRKYENDTPILEHRAEVTLSVKADFPTPSISDFEIPTSNIRRIICSASGGFPEPHLSWLENGEELNAINTTVSQDPETELYAVSSKLDFNMTTNHSFMCLIKYGHLRVNQTFNWNTTKQEHFPDN
B8: R29D, Y31L, Q33H, K36G, M38I, T41A, M43R, M47T, L70Q, E81V, L85R, K89N, A91T, F92P, K93I, R94L, L97R, T130A, L148S (protein)
chain: B7 chain with L148S
B9: H18L, R29D, Y31L, Q33H, K36G, M38I, T41A, M43R, M47T, E81V, L85R, K89N, A91T, F92P, K93V, R94L, I118V, T120S, I127T, T130A, L142S, H188D (protein)
chain: B1 chain with H18L, E81V, L85R, K89N, G91T, F92P, K93V, R94L, L142S
B10: R29D, Y31L, Q33H, K36G, M38I, T41A, M43R, M47T, I61N, E81V, L85R, K89N, A91T, F92P, K93V, R94F, V104A, I118V, T120S, I126V, T130A (protein)
chain: B7 chain with I61N, Q70L, I93V, L94F, R97L, V104A, I118V, T120S, I126V
B11: R29D, Y31L, Q33H, K36G, M38I, T41A, M43R, M47T, L70Q, E81V, L85R, K89N, A91T, F92P, K93V, R94L, I118V, T120S, I127T, T130A (protein)
chain: B7 chain with I93V, R97L, I118V, T120S, I127T
B12: H18L, R29D, Y31L, Q33H, K36G, M38I, T41A, M43R, M47T, E81V, L85R, K89N, A91T, F92P, K93V, R94L, F116S, T130A, H188D (protein)
chain: B7 chain with H18L, Q70L, I93V, R97L, F116S, H188D
B13: R29D, Y31L, Q33H, K36G, M38I, T41A, M43R, M47T, E81V, L85R, K89N, A91T, F92P, K93V, R94F, I118V, T120S, T130A (protein)
chain: B7 chain with Q70L, I93V, L94F, R97L, I118V, T120S
B14: R29D, Y31L, Q33H, K36G, M38I, T41A, M43R, M47T, T62S, E81V, L85R, K89N, A91T, F92P, K93V, R94L, I118V, T120S, T130A, K169E, T175A (protein)
chain: B7 chain with T62S, Q70L, I93V, R97L, I118V, T120S, K169E, T175A
B15: H18L, R29D, Y31L, Q33H, K36G, M38I, T41A, M43R, M47T, E81V, L85R, K89N, A91T, F92P, K93V, R94L, I118V, T120S, I127T, T130A, H188D (protein)
chain: B1 chain with H18L, E81V, L85R, K89N, G91T, F92P, K93V, R94L
B16: C16S, H18L, R29D, Y31L, Q33H, K36G, M38I, T41A, M43R, M47T, E81V, L85R, K89N, A91T, F92P, K93V, R94L, T110A, I118V, H188D (protein)
chain: B7 chain with C16S, H18L, Q70L, I93V, R97L, T110A, I118V, A130T, H188D
B17: R29D, Y31L, Q33H, K36G, M38I, T41A, M43R, M47T, E81V, L85R, K89N, A91T, F92P, K93V, R94L, S129L, H188D (protein)
chain: B7 chain with Q70L, I93V, R97L, S129L, A130T, H188D

system: human pan T cells; assay: Anti-CD3 coimmobilization assay, IFN-gamma; type: cell-based; conditions: Table E34; culture supernatant, 3 days
Description: Costimulatory bioactivity of CD80 fusion variants was determined in anti-CD3 coimmobilization assays. 1 nM or 4 nM mouse anti-human CD3 (OKT3, Biolegends, USA) was diluted in PBS with 1 nM to 80 nM rCD80.Fc variant proteins. This mixture was added to tissue culture treated flat bottom 96-well plates (Corning, USA) overnight to facilitate adherence of the stimulatory proteins to the wells of the plate. The next day, unbound protein was washed off the plates and 100,000 purified human pan T cells (BenTech Bio, US) or human T cell clone BC3 (Astarte Biologics, USA) were added to each well in a final volume of 200 μl of Ex-Vivo 15 media (Lonza, Switzerland). Cells were cultured 3 days before harvesting culture supernatants and measuring human IFN-gamma levels with Duoset ELISA kit (R&D Systems, USA) as described above.

| Molecule | Anti-CD3 IFN-gamma Coimmobilization Assay |
| --- | --- |
| B1 | 125 pg/mL |
| B2 | 224 pg/mL |
| B3 | 122 pg/mL |
| B4 | 75 pg/mL |
| B5 | 107 pg/mL |
| B6 | 115 pg/mL |
| B7 | 202 pg/mL |
| B8 | 101 pg/mL |
| B9 | 143 pg/mL |
| B10 | 288 pg/mL |
| B11 | 162 pg/mL and 135 pg/mL |
| B12 | 114 pg/mL |
| B13 | 111 pg/mL |
| B14 | 114 pg/mL |
| B15 | 108 pg/mL |
| B16 | 247 pg/mL |
| B17 | 87 pg/mL |

— US20220177587A1, “METHODS AND USES OF VARIANT CD80 FUSION PROTEINS AND RELATED CONSTRUCTS” (Alpine Immune Sciences, Inc., priority 2018, published 2022)
